Here are results for 1 molecule from paper PMC8009048 (Science (New York, N.Y.), 2017).

The target of the assay is HOXB13 DNA binding domain fragment (residues 209-283) (human, UniProt Q92826 209-283). In words: crystal structure.
HOXB13 DNA binding domain fragment (residues 209-283), sequence (Q92826 209-283): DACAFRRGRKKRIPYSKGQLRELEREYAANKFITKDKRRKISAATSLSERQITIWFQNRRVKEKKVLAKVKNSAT

B1: MEIS1 DNA binding domain fragment (residues 279-333) (domain or fragment, human, UniProt O00470 279-333, looked up)
chain: FPKVATNIMRAWLFQHLTHPYPSEEQKKQLAQDTGLTILQVNNWFINARRRIVQP
Regarding B1, the binding result is recorded as “binds”.
